The source of these data is PMC9813724.

The experiment has as its target LvPrx4 (endogenous, shrimp hemocytes) (Penaeus vannamei (endogenous in hemocytes)). Briefly: Western blot after SDS-PAGE. (In general: A western blot detects proteins with antibodies after separation by electrophoresis.)

As a reminder, the stoichiometry N is a count of units in the complex or per binding partner. The substance “LvPrx4 (endogenous, shrimp hemocytes) (natural protein)” showed a stoichiometry N of 2.
